T1: human CD63 (human, UniProt P08962 2-238)
T1 construct: stably transfected in NIH3T3/hCD63; The cell line is named under assay; also called hCD63
T1 sequence: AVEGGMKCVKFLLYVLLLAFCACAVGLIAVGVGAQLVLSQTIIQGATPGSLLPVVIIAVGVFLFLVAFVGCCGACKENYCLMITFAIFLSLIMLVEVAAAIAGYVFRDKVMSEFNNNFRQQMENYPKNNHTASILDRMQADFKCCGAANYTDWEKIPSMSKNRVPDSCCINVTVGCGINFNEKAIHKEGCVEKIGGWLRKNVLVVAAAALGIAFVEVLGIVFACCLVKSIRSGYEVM


Columns and labels:
human CD63 [1] = target: T1, human CD63; assay: ECL, LNCAP cells
Method: (§1) LNCAP cells were determined to have a lower human CD63 copy number than U87MG cells. Non-transfected NIH3T3 cells, which have no detectable expression of human CD63 by fluorescence activated cell sorting (FACS), were included as a negative control.
(§2) Briefly, cell lines were rinsed once in PBS buffer without Ca²⁺/Mg²⁺ and incubated for 10 minutes at 37° C. with Enzyme Free Cell Dissociation Solution (Millipore, Cat #S-004-C) to detach the cells. Cells were then washed once with PBS with Ca²⁺/Mg²⁺ and counted with a Cellometer™ Auto T4 cell counter (Nexcelom Bioscience, LLC). Approximately 2.0×10⁴ NIH3T3/hCD63, LNCAP, U87MG or NIH3T3 cells were seeded separately onto 96-well carbon electrode plates […]) and were then incubated for one hour at 37° C. Nonspecific binding sites were blocked with 2% BSA (w/v) in PBS with Ca²⁺/Mg²⁺ for one hour at room temperature (RT). Solutions containing anti-CD63 antibodies or isotype control antibodies at a range of concentrations (1.7 pM to 100 nM) in 0.5% BSA (w/v) in PBS with Ca²⁺/Mg²⁺, as well as control buffer alone, were then added in duplicate to the plate-bound NIH3T3/hCD63, LNCAP, U87MG or NIH3T3 cells and incubated for one hour at RT. Plates were subsequently washed to remove unbound antibodies using an AquaMax2000 plate washer with a cell washing head (MDS Analytical Technologies). […] Plates were washed and then incubated with Read Buffer (MSD, Cat #R92TD-2) according to the manufacturer's instructions. Luminescent signals were measured using a SECTOR Imager (MSD).

human CD63 [2] = target: T1, human CD63; assay: ECL, U87MG cells
Method: as §1, §2

human CD63 [3] = target: T1, human CD63; assay: ECL, NIH3T3/hCD63 cells
Method: as §1, §2

[4] = target: T2, recombinant human CD63 extracellular loop 2 expressed with a C-terminal Myc-Myc-hexahistidine (human); assay: SPR Biacore, mAb captured, 25C
T2 construct: also called hCD63 EC loop 2-MMH; human CD63 EC loop 2-MMH
Method: (§3) Equilibrium dissociation constants (KD) for different CD63 (EC2) loop reagents binding to purified anti-CD63 monoclonal antibodies were determined using a real-time surface plasmon resonance based Biacore T200 biosensor or Biacore 2000 biosensor. All binding studies were performed in 10 mM HEPES, 150 mM NaCl, 3 mM EDTA, and 0.05% v/v Surfactant Tween-20, pH 7.4 (HBS-ET) running buffer at 25° C. and 37° C. The Biacore CMS sensor chip surface was first derivatized by amine coupling with either a rabbit anti-mouse Fc specific polyclonal antibody (GE Healthcare, Cat #BR100838) or an anti-human Fab kit (GE Healthcare, Cat #28958325) to capture anti-CD63 monoclonal antibodies. […] The association rate (Kₐ) and dissociation rate (kd) were determined by fitting the real-time binding sensorgrams to a 1:1 binding model with mass transport limitation using Scrubber 2.0c curve-fitting software. Binding dissociation equilibrium constant (KD) and dissociative half-life (t½) were calculated from the kinetic rates as: […]
(§4) Binding kinetics parameters for human CD63 EC loop 2 protein binding to different anti-CD63 monoclonal antibodies of the invention at 25° C. and 37° C. are shown in Tables 6 through 9.

[5] = target: T3, recombinant human CD63 extracellular loop 2 expressed with a C-terminal human Fc tag (human); assay: SPR Biacore, mAb captured, 25C
T3 construct: also called hCD63 EC loop 2-hFc; human CD63 EC loop 2-Fc
Method: as §3, §4

[6] = target: T2, recombinant human CD63 extracellular …; assay: SPR Biacore, mAb captured, 37C
Method: as §3, §4

[7] = target: T3, recombinant human CD63 extracellular …; assay: SPR Biacore, mAb captured, 37C
Method: as §3, §4

T2 sequence (chain, as listed by the source limits assumed): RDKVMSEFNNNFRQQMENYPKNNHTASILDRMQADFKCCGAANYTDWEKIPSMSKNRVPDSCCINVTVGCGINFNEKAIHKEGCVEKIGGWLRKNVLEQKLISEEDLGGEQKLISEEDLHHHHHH
T3 sequence (chain, as listed by the source limits assumed): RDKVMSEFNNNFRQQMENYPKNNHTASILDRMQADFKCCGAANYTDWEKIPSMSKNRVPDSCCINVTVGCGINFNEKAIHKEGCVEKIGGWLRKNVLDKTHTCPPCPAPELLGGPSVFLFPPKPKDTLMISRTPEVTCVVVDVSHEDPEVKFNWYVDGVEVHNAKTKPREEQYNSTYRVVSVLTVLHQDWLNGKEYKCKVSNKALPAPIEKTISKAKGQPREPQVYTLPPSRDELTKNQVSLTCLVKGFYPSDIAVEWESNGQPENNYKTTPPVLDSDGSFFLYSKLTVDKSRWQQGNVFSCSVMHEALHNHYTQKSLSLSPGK

Binder | EC50 (human CD63 [1]) [nM] | binding ratio at 3.7 nM vs NIH3T3 (human CD63 [1]) [fold] | EC50 (human CD63 [2]) [nM] | binding ratio at 3.7 nM vs NIH3T3 (human CD63 [2]) [fold] | EC50 (human CD63 [3]) [nM] | binding ratio at 3.7 nM vs NIH3T3 (human CD63 [3]) [fold] | 100 nM Ag Bound (RU) [4] [RU] | 100 nM Ag Bound (RU) [5] [RU] | Kd [5] [nM] | koff [5] [s⁻¹] | kon [5] [M⁻¹ s⁻¹] | t1/2 [5] [min] | 100 nM Ag Bound (RU) [6] [RU] | 100 nM Ag Bound (RU) [7] [RU] | Kd [7] [nM] | koff [7] [s⁻¹] | kon [7] [M⁻¹ s⁻¹] | t1/2 [7] [min] | Kd [4] [nM] | koff [4] [s⁻¹] | other results
H4H11996P2 (antibody, V domains shown) VH: QVQLVESGGGLVKPGGSLRLSCAASGFIFTDYFMNWIRQAPGKGLEWVSYISNSGNILYYADSVKGRFTISRDNAKASLYLQMSSLKAEDTAVYYCVRDPRMFYGMDVWGQGTTVTVSS VL: not shown | 4.4 | 7 | 8.1 | 57 | 0.98 | 188 | 61 | 257 | 0.292 | 0.000135 | 461000 | 86 | 46 | 294 | 0.264 | 0.000142 | 538000 | 81 | 84.9 | 0.014 | kon [4]: 165000 M⁻¹ s⁻¹; t1/2 [4]: 0.8 min; Kd [6]: 361 nM; koff [6]: 0.0389 s⁻¹; kon [6]: 108000 M⁻¹ s⁻¹; t1/2 [6]: 0.3 min
H4H11990P2 (antibody, V domains shown) VH: QVQLVESGGGLVKPGGSLRLSCATSGFTFTDYFMNWIRQAPGKGLEWVSYISNSGSIRYYADSVRGRFSISRDNAKNSLYLQMSSLRADDTAVYYCVRDPRQIYGMDVWGQGTTVTVSS VL: not shown | 5.1 | 6 | 4.8 | 66 | 0.93 | 168 | 94 | 275 | 0.209 | 8.99e-05 | 430000 | 128 | 81 | 338 | 0.104 | 4.96e-05 | 482000 | 233 | 30.6 | 0.00591 | kon [4]: 193000 M⁻¹ s⁻¹; t1/2 [4]: 2 min; Kd [6]: 124 nM; koff [6]: 0.0198 s⁻¹; kon [6]: 160000 M⁻¹ s⁻¹; t1/2 [6]: 0.6 min
H3M12361N (antibody, V domains shown) VH: EVQLVESGGGLVQPGRSLRLSCTASGFTFGDHAMHWVRQAPGKGLEGVSSINWNSGIIGYAESVKGRFTISRDNAKNSLYLQMNNLRAEDTGLYYCARDIGVATLGIDYWGQGTLVTVSS VL: not shown | 1.1 | 19 | 1.3 | 111 | 0.81 | 243 | 43 | 83 | 0.299 | 0.000132 | 441000 | 87 | 39 | 97 | 0.568 | 0.00037 | 651000 | 31 | 3.12 | 0.000805 | kon [4]: 258000 M⁻¹ s⁻¹; t1/2 [4]: 14 min; Kd [6]: 5.85 nM; koff [6]: 0.00289 s⁻¹; kon [6]: 495000 M⁻¹ s⁻¹; t1/2 [6]: 4 min
H2M13022N (antibody, V domains shown, also called H2bM13022N) VH: QVQLVESGGGLVQPGGSLRLSCAASGFIFGDYYINWIRQAPGKGLQWVSYTSSSGSTTYYEDSVKGRFTMSRDNAKNLVYLQMNSLRAEDTAAYYCVRDLRYNDGLDVWGQGTTVIVSS VL: DILLTQSPSSLSAFVGDRVTITCRASQNIRTYLNWYQQKPGRAPKLLVYAASTLQSGVPSRFSGSGSGTDFTLTISSLQPEDFASYFCQQSYDNPPITFGQGTRLAIK | 0.32 | 8 | 0.85 | 71 | 0.45 | 95 | 48 | 117 | 0.61 | 0.00028 | 460000 | 41 | 31 | 107 | 1.01 | 0.000562 | 557000 | 21 | 13 | 0.00132 | kon [4]: 102000 M⁻¹ s⁻¹; t1/2 [4]: 9 min; Kd [6]: 21.5 nM; koff [6]: 0.00671 s⁻¹; kon [6]: 311000 M⁻¹ s⁻¹; t1/2 [6]: 2 min

The next lines start with results.

EC50 (human CD63 [1]) [nM] | binding ratio at 3.7 nM vs NIH3T3 (human CD63 [1]) [fold] | EC50 (human CD63 [2]) [nM] | binding ratio at 3.7 nM vs NIH3T3 (human CD63 [2]) [fold] | EC50 (human CD63 [3]) [nM] | binding ratio at 3.7 nM vs NIH3T3 (human CD63 [3]) [fold] | 100 nM Ag Bound (RU) [4] [RU] | 100 nM Ag Bound (RU) [5] [RU] | Kd [5] [nM] | koff [5] [s⁻¹] | kon [5] [M⁻¹ s⁻¹] | t1/2 [5] [min] | 100 nM Ag Bound (RU) [6] [RU] | 100 nM Ag Bound (RU) [7] [RU] | Kd [7] [nM] | koff [7] [s⁻¹] | kon [7] [M⁻¹ s⁻¹] | t1/2 [7] [min] | Kd [4] [nM] | koff [4] [s⁻¹] | Binder | other results
6.7 | 8 | 17 | 62 | 2.5 | 227 | 10 | 194 | 2 | 0.000728 | 364000 | 16 | 3 | 156 | 7.92 | 0.00457 | 577000 | 3 |  |  | H4H11993P2 (antibody, V domains shown) VH: QVQLVESGGGLVKPGGSLRLSCAASGFTFSDYYMNWIRQAPGKGLEWVSYINGGGYTMYYADSVKGRFTISRDNAKNSLYLQMNSLRAEDTAVYYCARDRRTTVSIDYWGQGTLVTVSS VL: not shown | 
3.6 | 4 | 5.5 | 33 | 1.5 | 87 | 53 | 304 | 0.401 | 0.000257 | 641000 | 45 | 30 | 358 | 1.05 | 0.000682 | 647000 | 17 | 213 | 0.0267 | H4H11992P2 (antibody, V domains shown) VH: QVQLVESGGGLVKPRGSLRLSCAASGFIFDDYFMNWIRQAPGKGLEWVSYISNSGNTKYYADSVKGRFTISRDNAYNSLYLQMNSLRAEDTAVYYCVRDPRSYYGMDVWGQGTTVTVSS VL: not shown | kon [4]: 125000 M⁻¹ s⁻¹; t1/2 [4]: 0.4 min; Kd [6]: 12300 nM; koff [6]: 0.0814 s⁻¹; kon [6]: 6600 M⁻¹ s⁻¹; t1/2 [6]: 0.1 min
1.9 | 11 | 1.7 | 99 | 0.94 | 266 | 106 | 291 | 0.149 | 6.2e-05 | 417000 | 186 | 74 | 342 | 0.045 | 1.91e-05 | 425000 | 603 | 19.9 | 0.00371 | H4H11997P2 (antibody, V domains shown) VH: QVQLVESGGGLVKPGGSLRLSCAASGFTFSDYYMNWIRQAPGKGLEWITYINNGGYTKYYADSVKGRFIISRDNTKNSVHLQMNSLRAEDTAVYYCVRDPRMYYGMDVWGQGTTVTVSS VL: not shown | kon [4]: 186000 M⁻¹ s⁻¹; t1/2 [4]: 3.1 min; Kd [6]: 145 nM; koff [6]: 0.0192 s⁻¹; kon [6]: 132000 M⁻¹ s⁻¹; t1/2 [6]: 0.6 min
